assay: soluble on expression in E. coli; label from the status in PepcDB or PDB records

Question: With “MGSDKIHHHHHHMHLDLLICSKPFIFNKVVDTKPFYQRTIMYKHTVSQHVFTFDSLTELMAKASPLRSGDQLAGIAAGSYQERIAAQMALADLPLTTFLQEPLIPYESDEVTRLIFDTHEHTAFTAIAHLTVGDFRNFLLSNNTHTSQLTALQKAITPEMAAAVSKIMNVQDLILVSSKCEIITRFRNTIGVKGCMSTRLQPNHPTDDLKAIMASVLDGLFYGSGDAVIGINPATDHISTQVQLLKLIDAVREQYAIPTQSCILSHITNTILAIEQGAPVDLVFQSIGGTEKTNSSFGINLSLLQEGYEAALSLGRGTIGNNVMYFETGQGSSLSANAHYGIDQQTLEARAYAVARAFNPLLVNTVVGFIGPEYLFDGKQIIRAGLEDHFCGKLMGLPMGCDICYTNHADADQDDMDALLTLLGVAGCNFIMGVPGSDDIMLNYQSTSFHDALYIRKLLNVKPAPEFEEWLLKMGIMNTQHEITVHRIYCG” as the sequence, how does the “soluble on expression in E. coli” value read?
Answer: not soluble

Question: For “MGSDKIHHHHHHMHQFLRAIGFSDITKKQLNEVINNIIDKPEKLKVTKDFEGNEFAELSCDVAPNMGITVRGIYNDDDSFDIDYYYPYFTGSEKTTNEIIDIEKHSEKESYAGVCDDPNLGVTLIFYLQNVCDYLSEKAYINREVRAKGAVLSGLSVDGCILLPMKQKKAKTLNTVDSDKKDRKQLIAEARDGDESAMESLTMEDIDLYSSITRRIQNEDILSIVTTYFMPYGIESDQYSVLGDIIELTEEKNIITNEKIYCIKVSCNDIIFSVCINKNDLIGEPMVGRRFKGNIWMQGSICL”, which “soluble on expression in E. coli” value is on record?
Answer: not soluble

Question: With “MGSDKIHHHHHHMHTELNHVMPWRIEDIDLTRIDRQKAVANEDLLLLLCASSFIESGSDLYTANLSTFFNGDPEVSAWLNQEWEPEELQHGRALKTYIAYVWPEFDWDTAFRNFMEEYSLTCSVEDFEKTRALEMVARCVVETGTATLYRAIGECSDEPVLKQITDNIRTDEVRHYKHFFKYFKKYNKIEGNGRLAVLGALMRRVMEIKNEDSEIALRHVFAVRYPERVHDSAYNRERAARINALVRRNLSADMCVKMLLKPLDLPARIQPGVHYPLAKITQHVFFR” as the sequence, how does the “soluble on expression in E. coli” value read?
Answer: not soluble

Question: For “MGSDKIHHHHHHMHVEDYMNETPACLLAMLTQTREDLWQAAKALTERGVTRIILTGSGTSYHGALTARSFMQQWCGLPVDVYWPFLLDDSALTLSDKALVIGISQGGGSLSTLAAMERARAAGHLTASMAGEAPAVIDRAADLVLTVPCGEERAGAKTKGYHCTILNLMLLGLAVASRQRRLSDEERKALLIRMDTTFNHLPTLIEASQAWVLNHARPLIDSADIRLTGPARLFGTVQEGALKMLETLRCPVAGYEFEEFIHGIYNAFDERSTLIMLDPFPDERQDRLAEILGGWTQHIYRIGPQVENNGKNMPFAFINDPDFAVFEYIIPLQMVCARLPPVKGIDPAIPKDPQFHQKMKSKQLN”, which “soluble on expression in E. coli” value is on record?
Answer: not soluble

Question: For “MGSDKIHHHHHHMICEFSESVLDGIADALVDRGYICVDNLFEPEVVVRLRDKVFTKADETFKPASIGRGQEQHRNTDIRRDSIRWLEPQCAVDNQYLSLMESLKNGLNRRLFMGLFDYESHYALYRPGAFYKKHVDALKGSQNRILTTVFFMNPEWQPDHGGVLKLYEEDDSLIEELAPLMGRLVIFLSERFPHEVMPTTVDRASIAGWFRVAGSQHGF”, which “soluble on expression in E. coli” value is on record?
Answer: not soluble

Question: For “MGSDKIHHHHHHMIDEHHIDALTKLLGDKGVVTRREDMEAYEAGARYDRGRAAAVLRPVTTEEVSAAVGYCVRSGIALIPQSGNTGLVSGSTPDESGSEVVVSLDRLTRQFALDLDNRSVRVDAGFRLSELNRRLEEHGLFFPIDLGADPRIGGMIATNTGGSRFLKYGDVRRNTLGLKVVLADEAGTVLDLGSDLRKNNTGVDWKQIFIGTSGAFGIVTECVLNLERLPKQTATAFLVPASGAHVLPLLKAMEERLGAYLSAFEGMSRNAIAAAFAHVPALKNPFQGGKVPDYVILAEISRTSSPREGEQPLDAVLESVLAEIWEMEEVLLADALVGPPHEIWALRHALSEGVKHLGKLIAFDLSFRRGDIMAFCDHMKTEMPEKFPGVTVCDFGHIGDGGVHFNLVVAKDSPLLADATFEQRLREWVFAVAVEQYHGSFSAEHALGRRNQAFYDLYTPEKLKNMAAGLKTLTSPGKLGSVRFG”, which “soluble on expression in E. coli” value is on record?
Answer: not soluble

Question: For “MGSDKIHHHHHHMIDFIYSFQNMEQINSSSWHLPTQYFLNRNNKMEATNTHDIQGLSARKTVEAYLAAFAEGKLDDIVSLLDDNVVWHIDGEPGVSTVGLLQGPGRVRRWLQNFPQNFRPLDFSISDIIAHNDSVLVLGRFRHTVLSTGNAVGSDMIIHFKVSGSKITRYQMFEDSALLSRAFDASDEWQLQQVRINGTLYRYRDIGEGPTLIFAHGLFANHEIFSAQFQILSKSYRCIVLDMPGHGLSEYDPAGWKLDDLSRDLALMIQELSLGKVTFIGQSQGGMVAIRLAAHYPQLVSGLVLIGTSARAEFPERLQNWHRQRDILLTGSEHAREDLFKKIQSHINNEAWLQNNQGEAARERRIMLSHNRTGLALALDAAVFERGDITELLADISAPTLIICGEQDTATPVELSQEIATLIADASILILAKTGHHPPTEAAQAVTAAIAEFLKLECSNHH”, which “soluble on expression in E. coli” value is on record?
Answer: not soluble

Question: Which “soluble on expression in E. coli” value does the source give for “MGSDKIHHHHHHMIEYRIEEAVAKYREFYEFKPVRESAGIEDVKSAIEHTNLKPFATPDDIKKLCLEARENRFHGVCVNPCYVKLAREELEGTDVKVVTVVGFPLGANETRTKAHEAIFAVESGADEIDMVINVGMLKAKEWEYVYEDIRSVVESVKGKVVKVIIETCYLDTEEKIAACVISKLAGAHFVKTSTGFGTGGATAEDVHLMKWIVGDEMGVKASGGIRTFEDAVKMIMYGADRIGTSSGVKIVQGGEERYGG” here?
Answer: soluble

Question: Which “soluble on expression in E. coli” value does the source give for “MGSDKIHHHHHHMIGICCLFIVTSCQNREPQGASIQGKDFAQSTEKSVIMVMIDSMTADLLDAAKEEGIIPGLSFLMENGTYFDELIAPFPSMSVVIESTLITGSLPDEHKVPGLVWYHAEEDRLVDYGSTPETYMKLGLNRVLFDDLSNLNNRHLSKDVPTIHEILQDSQMSTGSVNALVYRGNTSHKVNLPEPFDTWMQGQPFETKGPDLLSFGTIIEPKVIQAKELDDDHFLDLYGLNDSYGTAVVRTLIEKNEQPQFLFLFMPDFDQATHDHGQLNLEDFEKVDHAFQDILNSYDSWEQALEENIFIVIGDHGQSQIASTASDAIIPLPTLYEEYEIASLMDAPSDGEIVIANNHRMVYVYSFQPAHSFDTLANEALEDLRIQFAAYLEDDELVIKAPEHKEPLKVKKGGSWIDPYGQTWTIEGNEQIGDVFFDHDCKRIMYGENPDLFNQLFHALDSHTSTLVLTAKPGYIFESEGAPAHIGGGEHGGIHEEDTKAAMIIAGTDKAPAHLRMVDLKDFIIRLMTEEN” here?
Answer: not soluble

Question: With “MGSDKIHHHHHHMIHTLYRYCIAFTVVFLSACSVTPRQDASESQAGASAAATLASWNDTRTKRSIVDFVTLVTTPESRDFIPSADRIAVFDNDGTLWPEQPVRVQLVFALQRVKTVAGRHPEWKRQEPFRSILKGNLRSVAASGDAGSLRVLAAAHVGMTSEQFAALAHEWFDSASDPRFNRLYADLAYQPMLELLAYLRANGFKTYLVTGGDVEFVREVAQRMYGIPPEQVIGSTVRYRYSQTNDAISLTRLAQVDTLVDGAAKPLAIDRVIGRRPVIAFGNADGDAPMLEWTSAGDGPRLAALVHHTDAEREYQYDHASQSGKLDKGLDEAAVKGWLIVDMKDDWKTVFKPANTTAPGATGATGATVK” as the sequence, how does the “soluble on expression in E. coli” value read?
Answer: not soluble

Question: Which “soluble on expression in E. coli” value does the source give for “MGSDKIHHHHHHMIIKNRFTDEIEDAYLDYGSPPPEWQTVQNAAESLRSMPTDQLQSSAKSVFDYIRQNMDAILPRISRTTGKPMRYLRLEVDRSLSETGKIVVMDEPMFHDIPQYSVVYPNYQDPVSSLIVPSIFFLLNRVPVIVVPDRYAFLVPSLIYKAFASSGLPSGSFSISNGGIPEGFPSTRYAVSYSTDAMPEAAPGSGTLHADRGGPSMAVVWKDADVDFAAQNLVDSVIERHSIFLRSIVVHDEIFEYFVNRLKDLLPSIVAGDPEDLSTQLGPCASDIDLIRSLNMIAEARRARSIIYSKGPQGNIITPTIINGEITDMDDMVYTPVYILHHASSMEEVFELVSKVGPEALALYSSDSMLFRMVLSRTSAKYIGLNSYPEISYKPPISIPRRGLYL” here?
Answer: not soluble

Question: With “MGSDKIHHHHHHMIKNTIKKLIEHSIYTTFKLLSKLPNKNLIYFESFHGKQYSDNPKALYEYLTEHSDAQLIWGVKKGYEHIFQQYNVPYVTKFSMKWFLAMPRAKAWMINTRTPDWLYKSPRTTYLQTWHGTPLKKIGLDISNVKMLGTNTQNYQDGFKKESQRWDYLVSPNPYSTSIFQHAFHVSRDKILETGYPRNDKLSHKRNDTEYINGIKTRLNIPLDKKVIMYAPTWRDDEAIREGSYQFNVNFDIEALRQALDDDYVILLRMHYLVVTRIDEHDDFVKDVSDYEDISDLYLISDALVTDYSSVMFDFGVLKRPQIFYAYDLDKYGDELRGFYMDYKKELPGPIVENQTALIDALKQIDETANEYIEARTVFYQKFCSLEDGQASQRICQTIFK” as the sequence, how does the “soluble on expression in E. coli” value read?
Answer: not soluble

Question: Which “soluble on expression in E. coli” value does the source give for “MGSDKIHHHHHHMIKVEIDEGSGFCFGVVTAIHKAEEELAKGETLYCLGDIVHNSREVERLKAMGLITINRDEFRQLRNAKVLLRAHGEPPETYQIAHKNNIEIIDATCPVVLRLQKRIKQEFRKEDFEEKQIVIYGKNGHAEVLGLVGQTGGQAIVIESAEEAKKLDFTKSIRLFSQTTKSLDEFQEIVEYIKLHISPDATFEYYDTICRQVANRMPNLREFAATHDLIFFVSGKKSSNGKMLFEECLKVNANSHLIDNEKEIDPTLLRNVKSIGVCGATSTPKWLMEKIHDHIQLLIKD” here?
Answer: not soluble

Question: For “MGSDKIHHHHHHMILNIDVNLAYSIEQPVDLILQIQAPSFADQHVVSETFDLGNPEHVGRIAGEAGMGDRVLLSTATDFRFSYTAQIDVNRPALALEQLKAVAPHLLPGDAVRYLMPSRYCQSDELQSFVAAEFGHLSGGARIVAMRDWINQRYQYVPGSSTAQTTAIDTFVQRQGVCRDFAHVLIALARASAIPARFVSVYAPHVTPQDFHAVAEVFLDGTWHLVDATGMADASDIARIGVGMDAAEVAFLSSFGPMTMDTQTVSVSIAGS”, which “soluble on expression in E. coli” value is on record?
Answer: not soluble

Question: With “MGSDKIHHHHHHMINAPKTCTCYNGCVGGPSRPAGHPRRRTDKPRWRWTFDSGRRTPSVRIRQLVRGTVPWESLEAVARELGARYDQDTVRVVFLDADNWLSTPCVVNDRWFVKVISEQNALVHAVFTGARNLGMFSSGTEGFFERFDGPVAMAEHERDATRDLRALGVNAPRPIEAFEVDGFGVLVLDYLPAFTPLDEVPAADVAAHAPAVFEALSTMHANGVAHGDLRAENVLVSDGDLYFIDATNVDTDAIADARAYDLACALAALEPLIDAQTVVRIARESYTVDEAAADVSTTMDALLRAQDFLGFVQLRPDHDFDTAALTGHIGMAATNAQRGL” as the sequence, how does the “soluble on expression in E. coli” value read?
Answer: not soluble

Question: Which “soluble on expression in E. coli” value does the source give for “MGSDKIHHHHHHMINLNGNSSSSRQVTFITHPSIQSKAFASYLSETLMAPVVLQNINKPLAQRLAKDSVILFDIAVSNKKLNGVWRDIIRLQADNPRLLIINSAQKYELYEMAQWPALYGVFRHDDDESRLIEGVKAVLNGEQTAELSVMHPAMYAADHASTPVENSPLTERECEILNELRCGATNLDIARALFISENTVRTHLYNVFRKLSVKNRTQAVSWANEHLRH” here?
Answer: not soluble

Question: For “MGSDKIHHHHHHMINNEKYKELIKYLKSLGKVVLAFSGGVDSTFLLKASKEALGDNVKAVTILSPYIPKWEIREAEELVKELGVEHEIIKAPIIDSIKFNPEDRCYLCKTAVFSMILDAAKRQGYDCVIDGTNFDDIKDYRPGLRALKELSVKSPLLECKLTKAEIRTFSKELGLKTWDKPPYACLLTRIPYGNELKVEDFEKIERAERYMMSIGFRAIRVRCHDDLARIEVAREDRSKLFNEELLDTISENIKKCGFKYVSLDLQGYRVGSFNETIAKISDK”, which “soluble on expression in E. coli” value is on record?
Answer: not soluble

— the DeepSol protein solubility set
